Measurements taken from patent publication US20100183584A1, “CONFORMATION AND ACTIVITY OF GBETA5 COMPLEXES” (University Of Miami, priority 2007, published 2010).
Residue numbers refer to the chain shown, from its start.

What was measured:
[1] = target: full-length RGS7-Gβ5 complex (recombinant, co-expressed in cells) (bovine) (UniProt O46470); assay: GST pull-down from COS-7 lysate, western blot
[2] = target: Gβ5-RGS7^249-469 complex (bovine) (UniProt O46470); assay: GST pull-down from COS-7 lysate, western blot
Sequence of Gβ5-RGS7^249-469 complex (bovine) (O46470 249-469, one chain of several): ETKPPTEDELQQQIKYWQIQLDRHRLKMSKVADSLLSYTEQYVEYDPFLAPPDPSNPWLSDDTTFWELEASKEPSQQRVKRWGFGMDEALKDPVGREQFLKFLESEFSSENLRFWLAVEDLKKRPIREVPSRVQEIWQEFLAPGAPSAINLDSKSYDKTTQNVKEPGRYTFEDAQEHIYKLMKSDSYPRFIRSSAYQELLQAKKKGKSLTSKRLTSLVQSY

[3] = target: native RGS7-Gβ5 complex from mouse brain extract (mouse) (UniProt P62881); assay: GST pull-down from mouse brain extract, western blot
[4] = target: muscarinic acetylcholine M3 receptor (M3R), full length, expressed in CHO cells (human) (UniProt P20309); assay: cell-based or functional assay
Sequence of muscarinic acetylcholine M3 receptor (M3R), full length, expressed in CHO cells (human) (P20309 whole entry): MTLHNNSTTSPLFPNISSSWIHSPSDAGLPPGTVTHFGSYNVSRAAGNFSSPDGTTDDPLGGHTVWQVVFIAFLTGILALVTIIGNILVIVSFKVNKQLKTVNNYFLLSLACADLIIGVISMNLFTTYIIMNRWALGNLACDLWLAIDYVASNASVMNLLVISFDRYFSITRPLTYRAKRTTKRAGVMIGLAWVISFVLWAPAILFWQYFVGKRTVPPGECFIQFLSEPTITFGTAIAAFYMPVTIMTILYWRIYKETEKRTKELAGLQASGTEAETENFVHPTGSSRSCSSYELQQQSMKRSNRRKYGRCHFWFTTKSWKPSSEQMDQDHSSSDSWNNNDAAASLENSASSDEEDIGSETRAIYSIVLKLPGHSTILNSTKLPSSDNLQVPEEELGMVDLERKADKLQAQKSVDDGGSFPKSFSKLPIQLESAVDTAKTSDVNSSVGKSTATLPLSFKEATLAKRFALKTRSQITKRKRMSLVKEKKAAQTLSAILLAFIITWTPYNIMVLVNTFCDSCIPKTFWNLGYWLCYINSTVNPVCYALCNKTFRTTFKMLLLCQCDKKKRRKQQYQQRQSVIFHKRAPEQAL

[5] = target: T1, native RGS7-Gβ5 complex from mouse brain extract (mouse, UniProt P62881 1-353; O54829 1-469, limits assumed); assay: GST pull-down from mouse brain extract, western blot with anti-RGS7 and anti-Gβ5
T1 construct: Native complex in a cholate extract of brain membranes; may also carry R7BP; also called native Gβ5-RGS7; Gβ5-RGS complexes (brain)
T1 sequence (looked up) 1: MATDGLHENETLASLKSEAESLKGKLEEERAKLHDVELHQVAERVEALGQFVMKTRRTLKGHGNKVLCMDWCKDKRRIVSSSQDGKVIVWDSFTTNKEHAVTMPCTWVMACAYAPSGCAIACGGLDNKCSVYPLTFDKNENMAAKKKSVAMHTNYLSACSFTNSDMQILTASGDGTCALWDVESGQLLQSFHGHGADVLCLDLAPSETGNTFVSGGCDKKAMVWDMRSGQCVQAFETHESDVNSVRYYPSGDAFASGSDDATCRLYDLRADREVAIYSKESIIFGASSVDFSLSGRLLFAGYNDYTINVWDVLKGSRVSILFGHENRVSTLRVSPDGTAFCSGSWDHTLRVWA
T1 sequence (looked up) 2: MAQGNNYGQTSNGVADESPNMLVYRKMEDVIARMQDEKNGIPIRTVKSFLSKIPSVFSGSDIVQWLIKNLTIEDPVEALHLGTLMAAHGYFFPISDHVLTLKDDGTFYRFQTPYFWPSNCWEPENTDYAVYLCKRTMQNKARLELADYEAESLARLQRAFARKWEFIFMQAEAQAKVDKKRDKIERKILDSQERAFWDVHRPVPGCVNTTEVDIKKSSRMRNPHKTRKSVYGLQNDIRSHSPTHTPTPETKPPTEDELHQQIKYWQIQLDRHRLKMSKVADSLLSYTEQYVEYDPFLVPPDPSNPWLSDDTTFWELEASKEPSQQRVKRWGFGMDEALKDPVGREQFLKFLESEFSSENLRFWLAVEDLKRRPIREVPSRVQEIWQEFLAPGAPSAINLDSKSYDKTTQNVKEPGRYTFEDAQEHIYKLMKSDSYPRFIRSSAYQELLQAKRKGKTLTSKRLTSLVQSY

GST = target: T2, GST (UniProt P08515 1-218 = GST); assay: GST pull-down from CHO cell lysate
T2 construct: Negative control in pull-down and FRET assays; also called GST alone; immobilized GST
T2 sequence (P08515 whole entry): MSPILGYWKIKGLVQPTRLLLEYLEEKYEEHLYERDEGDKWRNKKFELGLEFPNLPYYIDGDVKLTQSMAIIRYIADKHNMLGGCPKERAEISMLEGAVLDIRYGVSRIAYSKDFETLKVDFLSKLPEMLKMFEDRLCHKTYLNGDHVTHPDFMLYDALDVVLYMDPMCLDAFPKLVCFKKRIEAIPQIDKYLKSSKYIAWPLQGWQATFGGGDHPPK

[6] = target: T3, Gβ5-RGS7 dimer (CFP-Gβ5/YFP-RGS7) (UniProt O14775+O46470); assay: FRET between CFP-Gβ5 and YFP-RGS7 in COS-7 cell lysates; format: binding, bovine; details: GST-R7DEP added to COS-7 lysate; GST alone had no effect
T3 construct: YFP fusion of full-length RGS7 (YFP-RGS7) and CFP-Gβ5; expressed in transfected cells; host or cells: COS-7 (transient; lysate measured)
T3 sequence (O14775 1-353 isoform O14775-2): T1 sequence (looked up) 1 with D4E, V242I
T3 sequence (O46470 1-469): T1 sequence (looked up) 2 with H259Q, V298A, R371K, R452K, T456S
Description: To measure FRET, COS-7 cells were transiently transfected with plasmids encoding YFP-RGS7 and CFP-Gβ5. Control cells were co-transfected with YFP-RGS7 together with untagged Gβ5, and CFP-Gβ5 together with untagged RGS7. The lysates of these cells were subjected to spectroscopic analysis, as described in Example 1. Shown are the resulting FRET spectra obtained after subtraction of the YFP background fluorescence during the CFP excitation and CFP “bleed-through” into the YFP emission channel. A. Right panel: GST R7-DEP (black symbols) or buffer (open symbols) was added to the lysate prior to recording of the spectra. […]
To permit the association of exogenously added DEP domain with Gβ5, the intra-molecular interaction between the intrinsic DEP and Gβ5 must be dynamic and have relatively low affinity. To investigate this hypothesis, a protein-protein binding assay based on fluorescence resonance energy transfer (FRET) was devised. […]
FRET between CFP— and YFP-tagged proteins was determined on a photon counting spectrofluorometer (PTI, Inc.) (28). Briefly, the cell lysates were placed in a 4 ml quartz cuvette, and the spectra were recorded at room temperature with continuous mixing of the lysate with a magnetic stirrer. CFP was excited at 433 nm (2-4 nm slit width, depending on the intensity of fluorescence signal) and the emission spectra were obtained between 465 and 555 nm. […]

GST-R7DEP ED/SG mutant (E73S/D74G) (from UniProt O46470 34-124)
fold reduction in the amount of Gβ5 pulled down relative to the wild-type DEP domain [1]: > 10 fold | fold reduction in the amount of Gβ5 pulled down relative to the wild-type DEP domain [2]: > 10 fold | fold reduction in the amount of Gβ5 pulled down relative to the wild-type DEP domain [3]: > 10 fold

full-length RGS7 ED/SG mutant (RGS7^ED/SG, E73S/D74G) co-expressed with Gβ5 (from UniProt O46470 1-469)
reduction of the amplitude of carbachol-induced Ca^2+ transients in CHO-R7BP cells [4]: > 50%

B1: GST-R9DEP (GST fusion of the putative DEP domain of RGS9, amino acids 20-117 of bovine RGS9) (other, UniProt O46469 20-117, looked up)
chain: IEALVKDMQDPDTGVRVQNQKVKVVSIPHAMTGSDVLQWISQRLWISGLEAQNLGNFIVKYGYIYPLQDPRNLTLKPDSSLYRFQTPYFWPTQQWPAE
notes: range 20-117; not shown: glutathione S-transferase (GST) tag of the pGEX-KG vector
binding result [5]: no binding

B2: YFP-DEP (amino acids 1-124 of full-length bovine RGS7 fused to the C-terminus of YFP) (other, UniProt O46470 1-124, looked up)
chain: MAQGNNYGQTSNGVADESPNMLVYRKMEDVIARMQDEKNGIPIRTVKSFLSKIPSVFSGSDIVQWLIKNLTIEDPVEALHLGTLMAAHGYFFPISDHVLTLKDDGTFYRFQTPYFWPSNCWEPE
notes: range 1-124; also called DEP domain; DEP domain of RGS7; not shown: yellow fluorescent protein (YFP) of the pEYFPC1 vector
binding result (GST): no binding

B3: GST-R7DEP: GST fusion construct containing the amino acids 34-124 of bovine RGS7 (protein)
chain: MQDEKNGIPIRTVKSFLSKIPSVFSGSDIVQWLIKNLTIEDPVEALHLGTLMAAHGYFFPISDHVLTLKDDGTFYRFQTPYFWPSNCWEPE
modifications: left off: a dimerising Fc or GST
notes: GST fusion construct containing the amino acids 34-124 of bovine RGS7
FRET reduction, of the total FRET signal [6]: 15-20%
